# Assay results from the supplement of paper PMC10724198.
# ± gives the standard deviation of the averaged measurements.
# Test system: Saccharomyces cerevisiae
# Assay: protein stability index of tFT-peptide fusion (C-terminal peptide) (PSI (0-1 scale)); higher = more stable (slower turnover)
# Conditions: genetic background: doa10 deletion; temperature: 30 C
# Procedure: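 MPS profiling in S. cerevisiae of the tFT-X12 degron library: putative degron peptides plus stable controls, 12 aa, fused to the C-terminus of a sfGFP-mCherry timer. Cells are FACS-sorted into 8 mCherry/sfGFP bins and deep-sequenced. PSI runs from 0 (unstable) to 1 (stable). Backgrounds are wild type, das1Δ and doa10Δ at 30 °C, and wild type, das1Δ, cdc34-1 and cdc53-1 at 37 °C; 2-3 technical replicates each.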
# 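Further: PSI is a weighted mean of sequencing reads over stability bins, variants kept only with over 10 reads, mCherry proximal and sfGFP distal, peptide attached via GGGS linker.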
row,Sequence,protein stability index
1,CLVISVLFGVVA,0.1782 ± 0.0014
2,CLYATQFWGRYG,0.229 ± 0.0079
3,CPYSNAFALCVF,0.183 ± 0.0056
4,FLPPVHRCFSIF,0.172 ± 0.014
5,GFLFVLCAWGFF,0.21 ± 0.0069
6,GGGWGGRWGRLC,0.193 ± 0.021
7,GPPVPLSPPLSP,0.33 ± 0.0094
8,KQSGLQIKRRKL,0.639 ± 0.07
9,LVCSLLVPSSFF,0.667 ± 0.035
10,PPPPPPPAPASP,0.553 ± 0.17
11,QRAVGLANFTIK,0.646 ± 0.048
12,RPPPYSPRLFHN,0.0941 ± 0.065
13,RSRNSEYILVYN,0.318 ± 0.012
14,TGGGGRVSLGGG,0.374 ± 0.013
15,VFYWGGVLCGWG,0.297 ± 0.019
16,WLISLLVQPVFL,0.233 ± 0.0031

# Same assay, conditions: genetic background: wild type; temperature: 30 C
row,Sequence,protein stability index
1,AALFNYVVCFCA,0.323 ± 0.015
2,AASRVIYLLNLF,0.232 ± 0.018
3,AFRFHTYFLLLC,0.0553 ± 0.012
4,AGLLVLISWRLF,0.141 ± 0.019
5,AKVFGLILVLLT,0.205 ± 0.024
6,ALEIIRLSHRLC,0.0791 ± 0.016
7,APEWGGGDEWWG,0.7 ± 0.0091
8,APPFPSLSSFAP,0.706 ± 0.04
9,APPPVAPAPGSA,0.675 ± 0.053
10,APPRLPLLSCSQ,0.642 ± 0.044
11,APPSRRLTLRLA,0.145 ± 0.0058
12,APRPSYSLLALL,0.41 ± 0.0052
13,ASVSVWCVSVVV,0.109 ± 0.017
14,AVLSFVLVRSVV,0.417 ± 0.021
15,AWVLISNRRRIM,0.216 ± 0.029
16,AYPAHQLLVSCL,0.384 ± 0.038
17,CCGWSGCVSGVL,0.657 ± 0.02
18,CCMLCVVAWSGV,0.295 ± 0.056
19,CCSGWSVRLLCV,0.269 ± 0.024
20,CCVLGDRCIGSD,0.655 ± 0.022
21,CFGIFWLFARLK,0.274 ± 0.035
22,CFVWFSVVLLFA,0.117 ± 0.016
23,CFYSRTIILEHC,0.233 ± 0.028
24,CGCLPYIGTKLC,0.117 ± 0.018

row,Sequence,protein stability index
1,CHSICLVILEFI,0.198 ± 0.028
2,CIFLLMAILSLA,0.27 ± 0.025
3,CIIAVMISIVSF,0.0274 ± 0.0082
4,CILVSVDVIVFF,0.136 ± 0.026
5,CLAGALSWLRRG,0.646 ± 0.019
6,CLLLFFIFLLFL,0.376 ± 0.024
7,CLLLILCFLCVR,0.321 ± 0.02
8,CLRFVFWFVCFV,0.186 ± 0.01
9,CLVISVLFGVVA,0.21 ± 0.016
10,CLYATQFWGRYG,0.258 ± 0.033
11,CPYSNAFALCVF,0.192 ± 0.019
12,FLPPVHRCFSIF,0.193 ± 0.032
13,GFLFVLCAWGFF,0.236 ± 0.0048
14,GGGWGGRWGRLC,0.218 ± 0.035
15,GPPVPLSPPLSP,0.341 ± 0.014
16,KQSGLQIKRRKL,0.7 ± 0.056
17,LVCSLLVPSSFF,0.645 ± 0.011
18,PPPPPPPAPASP,0.635 ± 0.089
19,QRAVGLANFTIK,0.669 ± 0.032
20,RPPPYSPRLFHN,0.129 ± 0.023
21,RSRNSEYILVYN,0.391 ± 0.014
22,TGGGGRVSLGGG,0.372 ± 0.0084
23,VFYWGGVLCGWG,0.326 ± 0.036
24,WLISLLVQPVFL,0.273 ± 0.02

# Same assay, conditions: genetic background: wild type; temperature: 37 C
row,Sequence,protein stability index
1,AALFNYVVCFCA,0.436 ± 0.025
2,AASRVIYLLNLF,0.473 ± 0.027
3,AFRFHTYFLLLC,0.0696 ± 0.038
4,AGLLVLISWRLF,0.223 ± 0.022
5,AKVFGLILVLLT,0.3711 ± 0.0013
6,ALEIIRLSHRLC,0.113 ± 0.0018
7,APEWGGGDEWWG,0.7984 ± 0.0027
8,APPFPSLSSFAP,0.718 ± 0.026
9,APPPVAPAPGSA,0.672 ± 0.051
10,APPRLPLLSCSQ,0.699 ± 0.014
11,APPSRRLTLRLA,0.32 ± 0.044
12,APRPSYSLLALL,0.616 ± 0.043
13,ASVSVWCVSVVV,0.148 ± 0.011
14,AVLSFVLVRSVV,0.574 ± 0.0062
15,AWVLISNRRRIM,0.502 ± 0.095
16,AYPAHQLLVSCL,0.5 ± 0.024
17,CCGWSGCVSGVL,0.74 ± 0.024
18,CCMLCVVAWSGV,0.524 ± 0.0054
19,CCSGWSVRLLCV,0.375 ± 0.0046
20,CCVLGDRCIGSD,0.718 ± 0.013
21,CFGIFWLFARLK,0.389 ± 0.035
22,CFVWFSVVLLFA,0.202 ± 0.014
23,CFYSRTIILEHC,0.34 ± 0.015
24,CGCLPYIGTKLC,0.106 ± 0.012

row,Sequence,protein stability index
1,CHSICLVILEFI,0.384 ± 0.011
2,CIFLLMAILSLA,0.427 ± 0.0079
3,CIIAVMISIVSF,0.0917 ± 0.023
4,CILVSVDVIVFF,0.166 ± 0.036
5,CLAGALSWLRRG,0.703 ± 0.022
6,CLLLFFIFLLFL,0.493 ± 0.029
7,CLLLILCFLCVR,0.401 ± 0.016
8,CLRFVFWFVCFV,0.231 ± 0.018
9,CLVISVLFGVVA,0.326 ± 0.0065
10,CLYATQFWGRYG,0.6 ± 0.014
11,CPYSNAFALCVF,0.253 ± 0.0037
12,FLPPVHRCFSIF,0.3915 ± 0.0028
13,GFLFVLCAWGFF,0.318 ± 0.0066
14,GGGWGGRWGRLC,0.479 ± 0.0076
15,GPPVPLSPPLSP,0.532 ± 0.039
16,KQSGLQIKRRKL,0.763 ± 0.061
17,LVCSLLVPSSFF,0.7039 ± 0.0056
18,PPPPPPPAPASP,0.629 ± 0.032
19,QRAVGLANFTIK,0.709 ± 0.018
20,RPPPYSPRLFHN,0.179 ± 0.067
21,RSRNSEYILVYN,0.66 ± 0.025
22,TGGGGRVSLGGG,0.416 ± 0.044
23,VFYWGGVLCGWG,0.439 ± 0.027
24,WLISLLVQPVFL,0.37 ± 0.0047

# Test system: Saccharomyces cerevisiae
# Assay: as above
# Conditions: genetic background: wild type; temperature: 30 C
row,Sequence,protein stability index
1,AALFNYVVCFCA,0.358 ± 0.0079
2,AASRVIYLLNLF,0.3446 ± 0.0022
3,AFRFHTYFLLLC,0.0812 ± 0.019
4,AGLLVLISWRLF,0.217 ± 0.036
5,AKVFGLILVLLT,0.334 ± 0.022
6,ALEIIRLSHRLC,0.127 ± 0.011
7,APEWGGGDEWWG,0.767 ± 0.012
8,APPFPSLSSFAP,0.717 ± 0.018
9,APPPVAPAPGSA,0.709 ± 0.012
10,APRPSYSLLALL,0.443 ± 0.025
11,ASVSVWCVSVVV,0.15 ± 0.026
12,AVLSFVLVRSVV,0.471 ± 0.02
13,AWVLISNRRRIM,0.262 ± 0.065
14,AYPAHQLLVSCL,0.482 ± 0.028
15,CCGWSGCVSGVL,0.717 ± 0.018
16,CCMLCVVAWSGV,0.359 ± 0.0042
17,CCSGWSVRLLCV,0.37 ± 0.025
18,CCVLGDRCIGSD,0.678 ± 0.057
19,CFGIFWLFARLK,0.345 ± 0.059
20,CFVWFSVVLLFA,0.194 ± 0.0056
21,CFYSRTIILEHC,0.328 ± 0.015
22,CGCLPYIGTKLC,0.165 ± 0.0027

row,Sequence,protein stability index
1,CHSICLVILEFI,0.274 ± 0.034
2,CIFLLMAILSLA,0.411 ± 0.075
3,CIIAVMISIVSF,0.0807 ± 0.031
4,CILVSVDVIVFF,0.212 ± 0.005
5,CLAGALSWLRRG,0.732 ± 0.018
6,CLLLFFIFLLFL,0.41 ± 0.05
7,CLLLILCFLCVR,0.359 ± 0.026
8,CLRFVFWFVCFV,0.27 ± 0.087
9,CLYATQFWGRYG,0.434 ± 0.07
10,CPYSNAFALCVF,0.272 ± 0.034
11,WVGLGMSLRRAA,0.564 ± 0.062
12,WVSMDFTGLVNG,0.628 ± 0.015
13,WVTKGLYIMSTK,0.663 ± 0.11
14,WVVGCVRGVWGA,0.712 ± 0.051
15,WWEGSFRGGAVR,0.592 ± 0.094
16,WYSSSRDLSVSG,0.731 ± 0.0076
17,YASKNPSVVIFG,0.68 ± 0.018
18,YATLGPDRALVR,0.655 ± 0.0095
19,YAVGWLLGGLWD,0.765 ± 0.053
20,YCGCLGYATGRV,0.671 ± 0.017
21,YCGLQSWLGVGG,0.677 ± 0.0076
22,YCMRPLCLEMFR,0.682 ± 0.016

row,Sequence,protein stability index
1,YCPLSRTQSSAR,0.859 ± 0.18
2,YCPVFSLPPFFR,0.664 ± 0.086
3,YCRSFSGPFFDI,0.745 ± 0.094
4,YCTMHLQLLQHS,0.578 ± 0.012
5,YDLLLYGGATSP,0.757 ± 0.084
6,YDRFVNGKSPGM,0.701 ± 0.06
7,YDSGNWPGFRCQ,0.73 ± 0.055
8,YDVLGLFPICKW,0.729 ± 0.06
9,YEHPRLRNGSIM,0.8 ± 0.24
10,YFCCFIPFFFDC,0.663 ± 0.069
11,YFETNINKYLRM,0.7107 ± 0.00072
12,YFFECFKECREQ,0.749 ± 0.015
13,YGGCGFEEEGVR,0.73 ± 0.02
14,YGGSLLNVFGLG,0.645 ± 0.0078
15,YGIGVRMPRSYW,0.709 ± 0.035
16,YGPRNRNPPNAG,0.688 ± 0.099
17,YHPPLDHHQCTE,0.648 ± 0.063
18,YHPPLTIQSLGH,0.694 ± 0.029
19,YIGLPVSALTIF,0.574 ± 0.1
20,YILSSFPSCLVL,0.64 ± 0.034
21,YINRKKKKINKT,0.675 ± 0.066
22,YKGGDEVKTKKK,0.656 ± 0.035

row,Sequence,protein stability index
1,YKRRYTKNQIRK,0.666 ± 0.054
2,YKSKQKAQQKAK,0.64 ± 0.13
3,YLFSLSSSLFIL,0.56 ± 0.0085
4,YLPLPPLTPPPR,0.776 ± 0.036
5,YLPSTAHSAHPP,0.737 ± 0.045
6,YLQPSGSRPGAK,0.715 ± 0.014
7,YLRSMIPKELAV,0.605 ± 0.023
8,YMIPVPFSNLCL,0.66 ± 0.011
9,YMSHPHGPLCLS,0.75 ± 0.21
10,YPAVNLVPPPDV,0.675 ± 0.013
11,YPGPFTGCSKIQ,0.676 ± 0.069
12,YPGVSRCGTRWV,0.643 ± 0.046
13,YPHAGSTSLLLF,0.685 ± 0.0073
14,YPLRVSRCWSPP,0.773 ± 0.1
15,YPPGSPVPPGLP,0.671 ± 0.0076
16,YPRGFPTLSYSS,0.727 ± 0.023
17,YPRPIPSISRTS,0.731 ± 0.053
18,YQAVRGRVFVAL,0.638 ± 0.044
19,YQFGFLPAFPAC,0.7 ± 0.013
20,YRARRRPPPSPP,0.682 ± 0.045
21,YREPKISEMLQE,0.621 ± 0.017
22,YRIWFSSFLHPT,0.741 ± 0.18

row,Sequence,protein stability index
1,YRPPFPAALFSE,0.6962 ± 0.0034
2,YRRASGGTVEDM,0.721 ± 0.024
3,YRSPPPLRGLIP,0.711 ± 0.088
4,YRTCLHRGRQML,0.68188 ± 0.00019
5,YRTPCPPLSPHS,0.719 ± 0.062
6,YRVFTANYEYEQ,0.724 ± 0.023
7,YSGFVVGASDTL,0.601 ± 0.18
8,YSHSRVNPDAWG,0.669 ± 0.11
9,YSRGVSGSDKFP,0.747 ± 0.16
10,YSVSAALPREFR,0.773 ± 0.062
11,YTLPVHPAFVFP,0.683 ± 0.071
12,YTPDFPTIVSFI,0.694 ± 0.14
13,YTSTSTILRPFP,0.676 ± 0.078
14,YVAGECVFVCWE,0.657 ± 0.04
15,YVARERWEGCRI,0.7 ± 0.0077
16,YVGAENRGVQGW,0.723 ± 0.016
17,YVKHTVKVSGHK,0.665 ± 0.0098
18,YVRCSVKCHILT,0.609 ± 0.029
19,YWFVFGEFSGGR,0.716 ± 0.042
20,YWPPIRSILPQY,0.67 ± 0.033
21,YYAGFTAFGSLA,0.709 ± 0.079
22,YYVGLHSFSILQ,0.729 ± 0.076
